The values that follow come from patent publication US20190060366A1, “HIGHLY ENGRAFTABLE HEMATOPOIETIC STEM CELLS” (President and Fellows of Harvard College, priority 2016, published 2019).

Assay [1] relates to peripheral blood mononuclear cells (PBMCs). The assay can be described thus: Limiting dilution competitive transplants and secondary transplants of mobilized grafts. The assay is classed as in vivo. The note with it: secondarily transplanted mice; n=16 mice/group, P<0.01.
Assay [2] deals with CD34+ cells. The note with it: cited from earlier work.

B1: G-CSF: hematopoietic growth factor used clinically to mobilize HSC and HPC; comparator regimen (protein, UniProt P09919 31-207, looked up)
Granulocyte …: TPLGPASSLPQSFLLKCLEQVRKIQGDGAALQEKLVSECATYKLCHPEELVLLGHSLGIPWAPLSSCPSQALQLAGCLSQLHSGLFLYQGLLQALEGISPELGPTLDTLQLDVADFATTIWQQMEELGMAPALQPTQGAMPAFASAFQRRAGGVLVASHLQSFLEVSYRVLRHLAQP
On to B1, for which the “competitiveness of graft as measured by contribution to chimerism” value in assay [1] is “remained static”. Moreover, in assay [2] (autologous transplantation patients), the “patients that fail to mobilize an optimal CD34+ cell dose for autologous transplantation” value is “Up to 60%”. For the same molecule, the “poor mobilization in response to G-CSF, share of normal, healthy donors” value in assay [2] (normal, healthy donors) was 15%.
